# Measurements reported in US9526786B2, “Thermostabilization of proteins” (The Trustee of Columbia University in the City of New York, priority 2007, dated 2016).
# B1: wt-CocE: cocaine esterase of Rhodococcus sp. MB 1, SEQ ID NO:1 (protein, listed as Rhodococcus sp.)
# chain: MVDGNYSVASNVMVPMRDGVRLAVDLYRPDADGPVPVLLVRNPYDKFDVFAWSTQSTNWLEFVRDGYAVVIQDTRGLFASEGEFVPHVDDEADAEDTLSWILEQAWCDGNVGMFGVSYLGVTQWQAAVSGVGGLKAIAPSMASADLYRAPWYGPGGALSVEALLGWSALIGTGLITSRSDARPEDAADFVQLAAILNDVAGAASVTPLAEQPLLGRLIPWVIDQVVDHPDNDESWQSISLFERLGGLATPALITAGWYDGFVGESLRTFVAVKDNADARLVVGPWSHSNLTGRNADRKFGIAATYPIQEATTMHKAFFDRHLRGETDALAGVPKVRLFVMGIDEWRDETDWPLPDTAYTPFYLGGSGAANTSTGGGTLSTSISGTESADTYLYDPADPVPSLGGTLLFHNGDNGPADQRPIHDRDDVLCYSTEVLTDPVEVTGTVSARLFVSSSAVDTDFTAKLVDVFPDGRAIALCDGIVRMRYRETLVNPTLIEAGEIYEVAIDMLATSNVFLPGHRIMVQVSSSNFPKYDRNSNTGGVIAREQLEEMCTAVNRIHRGPEHPSHIVLPIIKR
# Experiments:
# [1] = system: cocaine-induced lethality; experiment: In vivo potency of protection against cocaine-induced lethality; set-up: species or system NIH-Swiss mice; conditions: i.v. pretreatment 1 min prior to i.p. cocaine
# [2] = Temperature-dependent decay in esterase activity (30 min pre-incubation); format: biochemical
# Description: FIG. 26 is a graph showing temperature-dependent decay in esterase activity. 50 ng/ml wild-type CocE and the mutants were pre-incubated for 30 min at temperatures indicated (° C.) and activity measured (Xie et al., 1999). The activity of each mutant remaining (as a percentage of the maximal activity, Vmax, without preincubation) following pre-incubation are illustrated. Wild-type CocE (open bars) appears to inactivate between 30-35° C. whereas T172R/G173Q (shaded bars) and L169K (solid) both display enhance thermal stability (inactivation at 40-45° C.).
# To test whether the improved enzymatic stability at 37° C. represents improved thermal stability of the protein fold, the capacity of the CocE at progressively higher temperatures were assessed (FIG. 26). The activity of wt CocE plummets precipitously after 30 min at approximately 30-35° C. Both L169K and T172R/G173Q each are inactivated at a higher temperature (40-45° C.). Circular dichroism analysis (near UV analysis) at varying temperatures, comparing wt-CocE and T172R/G173Q have melting temperatures in concordance with the loss of catalytic activity.
# [3] = 37° C., absence of DTT
# Description: Analysis of CocE action on cocaine cleavage is performed by utilizing the spectroscopic properties of cocaine, which maximally absorbs light at a 240 nm wavelength. CocE activity is measured by monitoring for a decrease in signal at A240, using various concentrations of cocaine, and determining the initial rate of the decrease. From these values the Vmax of the enzyme can be determined. By pre-incubating the enzyme at 37° C. for various times before monitoring for activity, the half life of CocE at 37° C. can be calculated.
# The initial rates (of decay) were determined by following the change in the intrinsic absorbance of cocaine at 240 nm (6700 M^1 cm^1)(Xie et al., 1999) using a SpectraMax Plus 384 UV plate reader (Molecular Devices, Sunnyvale, Calif.) using SOFTmax Pro software (Version 3.1.2). The reaction was initiated by adding 100 μL of a 2× enzyme solution (100 mM phosphate buffer, pH 7.4 and 300 mM NaCl) to 100 μL of a 2× cocaine solution (50 μg/mL enzyme, 100 mM Phosphate Buffer, pH 7.4 and 300 mM NaCl). All assays were performed with 100 μM DTT unless indicated otherwise. […] For stability measurements, wild type and mutant enzymes were diluted to 2× concentration and incubated at 37° C. for the times indicated. At the end of each time point, an aliquot was removed and kinetic behavior was observed as outlined above.
# (§1) In vitro kinetic assays. […] Initial rates were then used to determine Michaelis-Menten parameters. To assess thermal stability, enzyme preparations were preincubated at 37° C. for various lengths of time, prior to measurement of residual activities (Table 1 and FIG. 23).
# [4] = Circular dichroism melting temperature of CocE proteins alone; format: physicochemical; conditions: circular dichroism, enzyme alone
# Description: Further characterization of the stability of wild type (WT) CocE and thermostable mutants was performed through circular dichroism, which detects small changes in protein conformation and structure. Analysis by repeated CD measurements at increasing temperatures allows analysis of the thermodynamics and melting temperature (TM) of the protein, so long as the melting is reversible (i.e. the protein resumes it's original conformation upon cooling). […] However CD is still of value in determining the temperature to unfolding.
# [5] = system: cocaine-induced lethality; experiment: In vivo duration of protection against cocaine-induced lethality; set-up: species or system NIH-Swiss mice; conditions: 1 mg i.v.; cocaine 180 mg/kg i.p.
# Description: In vivo protection against cocaine lethality. Male NIH-Swiss mice (25-32 g) were obtained from Harlan Inc. (Indianapolis, Ind.) and were housed in groups of 6 mice per cage. All mice were allowed ad libitum access to food and water, and were maintained on a 12-h light-dark cycle with lights on at 06.30 AM in a room kept at a temperature of 21-22° C. Experiments were performed in accordance with the Guide for the Care and Use of Laboratory Animals as adopted and promulgated by the National Institutes of Health. The experimental protocols were approved by the University Committee on the Use and Care of Animals at the University of Michigan.
# Cocaine-induced toxicity was characterized by the occurrence of lethality, as defined by the cessation of observed movement and respiration. Mice were placed individually in Plexiglas observation chambers (16×28×20 cm high) to be habituated for 15 min before drug administration. Following intra-peritoneal (i.p.) cocaine administration, the mouse was immediately placed individually in the same chamber for observation. The presence or absence of lethality was recorded for 60 min following cocaine administration. The mouse was placed in a small restraint chamber (Outer tube diameter: 30 mm; Inner tube diameter: 24 mm) that left the tail exposed. The tail was cleansed with an alcohol wipe and a 30G1/2 precision glide needle (Fisher Scientific, Pittsburgh, Pa.) was inserted into one of the side veins for infusion. The i.v. injection volume of CocE or CocE mutant was 0.2 mL per mouse. Sterile gauze and pressure were applied to the injection site to staunch the bleeding.
# Lethality was monitored following injection at 1, 5, 10, or 30 min, or 1, 2, 3, 4, 5 hours after enzyme administration. Each treatment used 8 mice to assess the percent of lethality (i.e., protection) in mice pretreated with a single dose of an esterase at a single time point.
# These values were used to compare the degree of rightward shifts of cocaine's dose-response curve in the absence or presence of the enzyme pretreatment. In the time course study, a time point for duration of protection (i.e., 50% of lethality) was estimated by using each time course curve crossing 50% occurrence of lethality.
# Evaluation of in vivo half life. CocE is administered IV to the tail vein in a volume of 0.2 ml. Animals are challenged with 180 mg/kg cocaine delivered intraperitoneally at a given time after CocE administration.
# [6] = mouse, in vivo; cited from earlier work
# [7] = Michaelis-Menten kinetics of cocaine hydrolysis (absorbance at 240 nm); format: biochemical; conditions: cocaine
# Description: The initial rates (of decay) were determined by following the change in the intrinsic absorbance of cocaine at 240 nm (6700 M^1 cm^1)(Xie et al., 1999) using a SpectraMax Plus 384 UV plate reader (Molecular Devices, Sunnyvale, Calif.) using SOFTmax Pro software (Version 3.1.2). The reaction was initiated by adding 100 μL of a 2× enzyme solution (100 mM phosphate buffer, pH 7.4 and 300 mM NaCl) to 100 μL of a 2× cocaine solution (50 μg/mL enzyme, 100 mM Phosphate Buffer, pH 7.4 and 300 mM NaCl). All assays were performed with 100 μM DTT unless indicated otherwise. Final cocaine concentrations were as follows: 125, 62.5, 31.25, 15.63, 7.81, 3.91, 1.95, and 0.977 μM. Vmax and Km values were calculated using Prism (GraphPad Software, San Diego). For stability measurements, wild type and mutant enzymes were diluted to 2× concentration and incubated at 37° C. for the times indicated. At the end of each time point, an aliquot was removed and kinetic behavior was observed as outlined above.
# as §1
# Determination of Catalytic Efficiency. To determine the catalytic activity a spectrophometric assay was performed. Samples of L169K/G173Q CocE were added to a 96-well UV permeable plate containing increasing cocaine concentrations (0.5, 2.5, 5, 12.5, 25, 50, 100, and 150 μM) to give a final concentration of 10 ng/ml CocE in a final volume of 200 μl. The change in absorbance at 240 nm was measured over 20 minutes, with readings every 10 seconds, by a SpectraMax Plus 384 UV plate reader (Molecular Devices, Sunnyvale, Calif.) using SOFTmax Pro software (Version 3.1.2). The change in absorbance was converted to the change in concentration and furthermore the rate of decay per mole enzyme is determined (Kcat). Kcat and Km of the enzyme are determined using Prism (GraphPad software, San Diego).
molecule,measurement,setting,value
B1,protection against cocaine-induced lethality,[1],protected
same,temperature of inactivation,[2],30-35 °C
same,"half-time of inactivation, τinact",[3],approximately 25 min
same,melting temperature,[4],approximately 39 °C
same,"LT50, pretreatment time to 50% lethality",[5],approximately 14 min
same,effective half-life in the blood stream,[6],~10 min
same,Kcat(mol · s^−1 · mol^−1),[7],2323 mol · s^−1 · mol^−1
